Test results reported in US20180030149A1 (AVEO PHARMACEUTICALS, published 2018).
Where a chain is given by its changes, count along the chain named.

B1: Sh24C05-45 (antibody, human IgG1, kappa, V domains shown)
VH: EVQLVESGGGLVKPGGSLRLSCAASGFTFSDYAMSWVRQAPGKGLEWVSTISDGGTYTYYPDNVKGRFTISRDNAKNSLYLQMNSLRAEDTAVYYCAREWGDYDGFDYWGQGTLVTVSS
VL: DIQMTQSPSSLSASVGDRVTITCRASQEISGYLSWYQQKPGKAPKLLIYAASTLDSGVPSRFSGSGSGTDFTLTISSLQPEDFATYYCLQYDSYPYTFGQGTKLEIKR
notes: Humanized, human IgG1/kappa
B2: Sh24C05-19 (antibody, human IgG1, kappa, V domains shown)
VH: B1 VH with E1Q, V37I
VL: B1 VL with Y36L, K42G, P44I, L46R, T69S, F71Y
notes: Humanized, human IgG1/kappa
B3: Sh24C05-20 (antibody, human IgG1, kappa)
heavy: not shown
light: DIQMTQSPSSLSASVGDRVTITCRASQEISGYLSWFQQKPGKAPKSLIYAASTLDSGVPSRFSGSGSGTDFTLTISSLQPEDFATYYCLQYDSYPYTFGQGTKLEIKRTVAAPSVFIFPPSDEQLKSGTASVVCLLNNFYPREAKVQWKVDNALQSGNSQESVTEQDSKDSTYSLSSTLTLSKADYEKHKVYACEVTHQGLSSPVTKSFNRGEC
notes: Humanized, human IgG1/kappa
B4: Sh24C05-14 (antibody, human IgG1, kappa)
heavy: not shown
light: B3 light with F36L, K42G, P44I, S46R, T69S, F71Y
notes: Humanized, human IgG1/kappa
B5: Sh24C05-21 (antibody, human IgG1, kappa, V domains shown)
VH: B1 VH
VL: B1 VL with Y36F, L46S
notes: Humanized, human IgG1/kappa
B6: Sh24C05-15 (antibody, human IgG1, kappa, V domains shown)
VH: B1 VH
VL: B1 VL with Y36L, K42G, P44I, L46R, T69S, F71Y
notes: Humanized, human IgG1/kappa
B7: Sh24C05-22 (antibody, human IgG1, kappa, V domains shown)
VH: B1 VH with V5L, K13Q, A75S, S78T
VL: B1 VL with Y36F, L46S
notes: Humanized, human IgG1/kappa
B8: Sh24C05-16 (antibody, human IgG1, kappa, V domains shown)
VH: B1 VH with V5L, K13Q, A75S, S78T
VL: B1 VL with Y36L, K42G, P44I, L46R, T69S, F71Y
notes: Humanized, human IgG1/kappa
B9: Sh24C05-18 (antibody, human IgG1, kappa)
heavy: not shown
light: B3 light with F36L, K42G, P44I, S46R, T69S, F71Y
notes: Humanized, human IgG1/kappa

Molecular target: T1, recombinant human ErbB3 monomeric protein (cleaved rhErbB3) (human, UniProt P21860 20-643, limits assumed)
T1 construct: Monomer made by protease cleavage of the Fc fusion; also called Monomeric ErbB3
Assay: SPR Biacore 37 C; supernatant antibody captured on anti-human Fc, cleaved rhErbB3 injected
Method: The analyses were performed at 37° C. using PBS (Invitrogen, Catalog No. 14040-133) containing 0.05% surfactant P20 (Biacore, Catalog No. BR-1000-54) as running buffer.
The antibodies were captured in individual flow cells at a flow rate of […]. Injection time was varied for each antibody to yield an Rₘₐₓ between 30 and 60 RU. […] The dissociation phase was monitored for up to 1200 seconds. The surface was then regenerated with two 60 second injections of Glycine pH 2.25 (made from Glycine pH 2.0 (Biacore, Catalog No. BR-1003-55) and pH 2.5 (Biacore, Catalog No. BR-1003-56)) at […].
Kinetic parameters were determined using the kinetic function of the BIAevaluation software (Biacore) with double reference subtraction. Kinetic parameters for each antibody, kₐ (association rate constant), kd (dissociation rate constant) and KD (equilibrium dissociation constant) were determined.

Row | Kd | koff | kon | Binder
1 | 0.707 nM | 0.00606 s⁻¹ | 8.57e+06 M⁻¹ s⁻¹ | B1
2 | 0.0855 nM | 0.000255 s⁻¹ | 3e+06 M⁻¹ s⁻¹ | B2
3 | 0.221 nM | 0.000591 s⁻¹ | 2.67e+06 M⁻¹ s⁻¹ | B3
4 | 0.173 nM | 0.000498 s⁻¹ | 2.88e+06 M⁻¹ s⁻¹ | B4
5 | 0.22 nM | 0.000662 s⁻¹ | 3.11e+06 M⁻¹ s⁻¹ | B5
6 | 0.187 nM | 0.000499 s⁻¹ | 2.67e+06 M⁻¹ s⁻¹ | B6
7 | 0.216 nM | 0.000601 s⁻¹ | 2.79e+06 M⁻¹ s⁻¹ | B7
8 | 0.147 nM | 0.000404 s⁻¹ | 2.75e+06 M⁻¹ s⁻¹ | B8
9 | 0.161 nM | 0.000463 s⁻¹ | 2.88e+06 M⁻¹ s⁻¹ | B9
